In paper PMC10954479 (Nucleic Acids Research, 2024):
Blank lines part the entries; values can stand above or below the binder they belong to.

B4: HDAC4GRD (residues 62–192) H109D mutant (domain or fragment)
chain: AEPALREQQLQQELLALKQKQQIQRQILIAEFQRQHEQLSRQHEAQLDEHIKQQQEMLAMKHQQELLEHQRKLERHRQEQELEKQHREQKLQQLKNKEKGKESAVASTEVKMKLQEFVLNKKKALAHRNLN

Legend:
MEF2A1-95;HDAC4GRD WT [1] = biological target: T1, MEF2A1-95;HDAC4GRD WT (Homo sapiens;Homo sapiens, UniProt Q02078;P56524 1-95;62-192, |); experiment: X-ray crystallography
crystal structure = biological target: the molecule itself; experiment: crystal structure
[2] = biological target: T2, HDAC4GRD (residues 62–192) F93D mutant (human, UniProt P56524 62-192, F93D); experiment: native gel or EMSA
T2 sequence: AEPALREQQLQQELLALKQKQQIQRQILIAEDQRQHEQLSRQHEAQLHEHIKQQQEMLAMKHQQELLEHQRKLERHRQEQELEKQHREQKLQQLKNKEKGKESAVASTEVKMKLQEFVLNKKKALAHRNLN

[3] = biological target: B4; experiment: native gel or EMSA
SEC = biological target: the molecule itself; experiment: SEC
MEF2A1-95;HDAC4GRD WT [4] = biological target: T1, MEF2A1-95;HDAC4GRD WT; experiment: pull-down
MEF2A1-95;HDAC4GRD WT [5] = biological target: T1, MEF2A1-95;HDAC4GRD WT; experiment: pull-down; remark: listed apart in the source
MEF2A1-95;HDAC4GRD H109D [6] = biological target: T3, MEF2A1-95;HDAC4GRD H109D (Homo sapiens;Homo sapiens, UniProt Q02078;P56524 1-95;62-192, |H109D); experiment: pull-down
MEF2A1-95;HDAC4GRD WT [7] = biological target: T1, MEF2A1-95;HDAC4GRD WT; experiment: EMSA
MEF2A1-95;HDAC4GRD H109D [8] = biological target: T3, MEF2A1-95;HDAC4GRD H109D; experiment: EMSA
MEF2A1-95;HDAC4GRD F93D = MEF2A1-95;HDAC4GRD F93D (Homo sapiens;Homo sapiens, UniProt Q02078;P56524 1-95;62-192, |F93D); experiment: EMSA

B1: 15 bp crystallization DNA (dsDNA)
DNA 1: AAACTATTTATAAGA
DNA 2: TCTTATAAATAGTTT
- binding result (MEF2A1-95;HDAC4GRD WT [1]): binds

- binding result [2]: binds
- binding result [3]: binds
B2: human MEF2A MADS-box/MEF2s domain (residues 1–95) (domain or fragment)
chain: MGRKKIQITRIMDERNRQVTFTKRKFGLMKKAYELSVLCDCEIALIIFNSSNKLFQYASTDMDKVLLKYTEYNEPHESRTNSDIVEALNKKEHRG
- stoichiometry N (crystal structure): 2

B3: human HDAC4 glutamine-rich domain (HDAC4GRD, residues 62–192), wild type (domain or fragment)
chain: AEPALREQQLQQELLALKQKQQIQRQILIAEFQRQHEQLSRQHEAQLHEHIKQQQEMLAMKHQQELLEHQRKLERHRQEQELEKQHREQKLQQLKNKEKGKESAVASTEVKMKLQEFVLNKKKALAHRNLN
- stoichiometry N (crystal structure): 2

Binder: B4
- binding result (SEC): binds

B5: Site-1 DNA (dsDNA)
DNA 1: GGGAAAGTTTCTATTATTAGCAGAGATA
DNA 2: TATCTCTGCTAATAATAGAAACTTTCCC
- binding result (MEF2A1-95;HDAC4GRD WT [4]): binds

B6: Site-2 DNA (dsDNA)
DNA 1: CTAAGCAAATGAGATGAATATGCAGGGCACCATGCTAAAAATAAAATGGTTTCATGGTGCTAGTGAGGAAGGAA
DNA 2: TTCCTTCCTCACTAGCACCATGAAACCATTTTATTTTTAGCATGGTGCCCTGCATATTCATCTCATTTGCTTAG
- binding result (MEF2A1-95;HDAC4GRD WT [5]): binds
- binding result (MEF2A1-95;HDAC4GRD H109D [6]): binds

B7: 28 bp EMSA DNA (dsDNA)
DNA 1: GGGAAAGTTTCTATTATTAGCAGAGATA
DNA 2: TATCTCTGCTAATAATAGAAACTTTCCC
- binding result (MEF2A1-95;HDAC4GRD WT [7]): binds
- binding result (MEF2A1-95;HDAC4GRD H109D [8]): binds
- binding result (MEF2A1-95;HDAC4GRD F93D): binds
